From publication PMC4424350, “Unraveling the Specific Regulation of the Central Pathway for Anaerobic Degradation of 3-Methylbenzoate” (The Journal of Biological Chemistry, 2015) come the findings set out here.

The test system of data set [1] is T1, MbdR-His6 (Azoarcus sp. CIB), ORF:e0c75ca7.
T1 sequence: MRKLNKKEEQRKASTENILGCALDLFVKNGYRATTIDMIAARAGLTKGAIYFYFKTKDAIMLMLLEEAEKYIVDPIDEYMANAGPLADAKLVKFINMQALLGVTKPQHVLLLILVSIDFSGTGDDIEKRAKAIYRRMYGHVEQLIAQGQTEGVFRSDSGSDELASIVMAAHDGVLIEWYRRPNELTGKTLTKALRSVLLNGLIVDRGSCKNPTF
The data set can be described thus: DNase I footprinting. Conditions: EMSA: 20 mM Tris-HCl pH 7.5, 10% glycerol, 50 mM KCl, 0.05 nM probe, 250 ug/ml BSA, 50 ug/ml salmon sperm DNA, 20 min 30 C; footprinting: same buffer, 2 nM ….

Data set [2] has the same test system. The data set can be described thus: EMSA. Conditions: EMSA: 20 mM Tris-HCl pH 7.5, 10% glycerol, 50 mM KCl, 0.05 nM probe, 250 ug/ml BSA, 50 ug/ml salmon sperm DNA, 20 min 30 C; footprinting: same buffer, 2 nM ….
The target of data set [3] is MbdR-His6 protein (Azoarcus sp. CIB). The data set can be described thus: AUC; sedimentation velocity (48,000 rpm, 20 °C) and sedimentation equilibrium (5000 to 15,000 rpm) of MbdR-His6 at 11 to 46 μM in 50 mM NaH2PO4, 300 mM KCl, 20 mM imidazole, pH 8; data not shown.
Data set [4] relates to MbdR-His6 (Azoarcus sp. CIB). The data set can be described thus: EMSA. The settings on record: relative Kd; EMSA: 20 mM Tris-HCl pH 7.5, 10% glycerol, 50 mM KCl, 0.05 nM probe, 250 ug/ml BSA, 50 ug/ml salmon sperm DNA, 20 min 30 C; footprinting: same buffer, 2 nM ….

With “AATTCCCTGCGCGCGGCACTATGTCGGGGGAAATTCAGTCATTGCGGAAAACGGCGTTTCCGCGAGCTCGCCAACAAAAGGTCTGACAGCCCCGGTCCCCACATGCGGCTACCATATACCGGCTGGCTGGTATGTGTCAACGACTGATACGGAAGACCTCGAAATCGGAGGGAGGAAAATGGGAAAAGGACCTTTGAGAGCATGGACGGCGCATGGCGAGGAGATGGTATTACGGTAAGTGCTCCACGAGT (double strand) [PB1 probe (251 bp)]”, in data set [1], the binding result is listed as “binds”. The Kd in data set [2] is 3.72 nM. For the substance “ACTGAGGCCCCGCCCAAGTTTTCATTATCTCTAGTACCGGCAAAGAAGGGCCAAACAGATCTATTGCATACTATCCGGTTAGTACGTCTTTTGACCAATTGATCTACACGAGGGGAAACCATGTTCGAGAATTTCAACCATAGTGCTCTGCGTCTTGGAGCGCCAGGCGCTTTAGCGCAGCGTTTGCTGCCGAAGCATCAGGGTCACTATGTTGATGCGCATTGAGGGAATT (double strand) [PA probe (225 bp)]”, the binding entry in data set [1] and in data set [2] was “binds” throughout.

On to MbdR-His6 protein (natural protein), for which the stoichiometry N in data set [3] was 2.

Consider PB1 probe (251 bp), for which the Kd in data set [4] came out at 3.72 nM.

Turning to PO probe (271 bp), in data set [4], the Kd is 1.71 nM. This Kd lies about 2.2-fold lower than the previous one.
